# Data from patent US11833215B2, “CKIT antibody drug conjugates” (Novartis AG, priority 2014, dated 2023).
# “Also recorded” adds a separate entry of the source.
# Experiments:
# [1] = tested on: cKIT on normal human CD34+ bone marrow cells; test: cKIT receptor internalization on bone marrow cells by flow cytometry; type: cell-based; conditions: 10 μg/ml, 37° C.
# Description: In another internalization experiment, the impact of NEG085 on cKIT receptor levels was evaluated on human bone marrow cells. Normal human CD34+ bone marrow cells (All Cells, Cat #ABM022F, Emeryville, CA) were thawed and washed with 10 mL of StemPro®-34 SFM medium (Gibco, Life Technologies, Carlsbad, CA). Cells were resuspended in 1.25 mL of StemPro-34 SFM medium at 4×10^5 cells/mL and split equally into two tubes. One tube was untreated, and the other was treated with 10 μg/ml of NEG085 and both were incubated at 37° C., 5% CO2. 100 μL of cell suspension was collected at each timepoint (0, 15, 30, 60, 120, and 240 min) from each condition, and placed into an ice cold collection tube to cease internalization. Cells were washed with 3 mL of ice-cold FBS stain buffer and resuspended in 100 μL of FBS stain buffer. […] of 104D2-BV421 (mouse anti-human IgG1 k, Biolegend, San Diego CA) was added to each tube and incubated on ice for 1 hour. Following another wash with FBS stain buffer, total cKIT receptors were measured by flow cytometry by assessing the mean fluorescence intensity of BV421 on a FACS Canto II® (BD Biosciences, San Jose, CA).
# [2] = target: T1, Human cKIT D1-D3 ECD (Homo sapiens, UniProt P10721, N130S/N145S); test: crystal structure of cKIT ECD/NEG085 Fab complex
# T1 construct: protein was made with residues Q26-G311; made in house
# T1 sequence (P10721 26-311 N130S/N145S limits assumed): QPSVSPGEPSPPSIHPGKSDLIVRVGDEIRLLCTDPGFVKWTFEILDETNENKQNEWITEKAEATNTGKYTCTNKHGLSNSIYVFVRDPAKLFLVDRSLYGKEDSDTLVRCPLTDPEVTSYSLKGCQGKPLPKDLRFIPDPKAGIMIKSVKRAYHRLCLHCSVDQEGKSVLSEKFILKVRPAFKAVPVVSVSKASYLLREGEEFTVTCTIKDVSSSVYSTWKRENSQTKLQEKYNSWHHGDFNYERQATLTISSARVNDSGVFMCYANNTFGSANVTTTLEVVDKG
# Description: Human cKIT (accession code NM_000222 domain 1 (D1)-domain 3 (D3) extracellular domain (ECD) protein was made with residues Q26-G311 ([…], N145S- these changes results in glycosylation deficiency, in order to express the protein in a glycan free form). Equal molar ratios of human cKIT D1-D3 ECD and NEG085 Fab were mixed and subjected to a final gel filtration step equilibrated with 20 mM Tris-HCl pH 7.5 and 100 mM NaCl, and concentrated to 20 mg/ml. Trypsin was added to the protein complex crystallization sample to create a 1:100 w/w dilution. The protease/sample mixture was incubated at room temperature for 30 minutes before setting up the crystallization experiment.
# Diffracting crystals of the cKIT ECD/NEG085 Fab complex were obtained directly from Protein Complex Suite F5 (0.1M NaCl, 0.1M Tris pH 8.0, 8% PEG 20 k; Qiagen) at 4° C. and, after minor optimization, led to crystals diffracting to 5 Å in-house. […]
# Data were collected on a single crystal cooled to 100K using an ADSC QUANTUM 315 detector (ADSC, Poway CA) and synchrotron radiation (λ=1.0000 Å) at the beam line 5.0.2 of the Advanced Light Source. […] The crystal contains four copies of the cKIT ECD/NEG085 Fab complex in the asymmetric unit with a calculated solvent content of 66%. […]
# [3] = tested on: primary human mast cells; test: mast cell apoptosis (Caspase-Glo 3/7); type: cell-based; conditions: 0.05-100 nM, 1.6 nM rhSCF, 48 h
# Description: Primary human mast cells were cultured from peripheral human blood according to the methods described by Saito et al., Nature Protocols 2006; 1(4):2178-2183. Mast cells, which had been in liquid culture for a minimum of one week, were incubated with increasing concentrations (0.05-100 nM) of the anti-human cKIT Abs, NEG085 and 20376, or an isotype control IgG, in the presence of 1.6 nM rhSCF (Genscript, Cat #Z00400, Piscataway, NJ), for 48 h at 37° C. before the addition of the Caspase-Glo® 3/7 reagent (Promega, Cat #G8093, Madison, WI) to measure apoptosis. Following 30 min incubation at room temperature, luminescence was recorded on the BioTek® Synergy plate reader (BioTek, Winooski, VT).
# [4] = tested on: primary human mast cells; test: mast cell degranulation (β-hexosaminidase release); type: cell-based; conditions: 0.05-100 nM, 90 min
# Description: Primary human mast cells were cultured from peripheral human blood according to the methods described by Saito et al., (supra). Mast cells, which had been in liquid culture for a minimum of one week, were pre-treated with 5% Ag-specific IgE JW8 (in-house batch ACE 27283), 95% non-specific monoclonal human IgE (Abbiotec, Cat #12030635, San Diego, CA) and 10 ng/mL rhIL-4 (R&D Systems Cat #204-IL, Minneapolis, MN) for 5 days at 37° C. The cells were then incubated with increasing concentrations (0.05-100 nM) of an isotype control IgG, the anti-human cKIT Abs, 20376 and NEG085, the anti-IgE Ab, LE27, or the NIP(5)BSA antigen, in the presence of a goat anti-human IgG (H+L) Fc-specific Ab (Jackson ImmunoResearch, Cat #109-005-008-JIR, West Grove, PA) for 90 min at 37° C. Cells were then centrifuged and the supernatants were transferred into 96-well black-walled plates prior to the addition of the β-hexosaminidase substrate. Following 90 min incubation at 37° C., the reaction was stopped by the addition of tris-base (Sigma, Cat #T1503-500G, pH 12, St. Louis, MO) and the fluorescence intensity was recorded on the Envision® plate reader.
molecule,measurement,setting,value
"NEG085: anti-cKIT antibody of Table 3, VH SEQ ID NO 82, VL SEQ ID NO 91 (antibody, listed as Homo sapiens, V domains shown) VH: EVQLVESGGGLVQPGGSLRLSCAASGFAFSGYYMAWVRQAPGKGLEWVANINYPGSSTYYLDSVKGRFTISRDNAKNSLYLQMNSLRAEDTAVYYCARGDYYGTTYWYFDVWGQGTTVTVSS VL: DIQMTQSPSSLSASVGDRVTITCRASQSISSYLNWYQQKPGKAPKLLIYYTSRLQSGVPSRFSGSGSGTDFTLTISSLQPEDFATYYCQQGRRLWSFGGGTKVEIK",time of bulk of cKIT internalization,[1],15 min
same,internalization of cKIT on human bone marrow cells,[1]; 0-240 min,mediate rapid internalization; also recorded: rapidly internalized
same,competition with SCF for binding to cKIT (superposition of structures),[2],appear to not compete
same,solvent-accessible surface area buried by NEG085/cKIT interface,"[2]; total, H and L chain",~1890 Å2
same,apoptosis of primary human mast cells,[3],do not mediate primary human mast cell apoptosis; also recorded: do not lead to apoptosis
same,degranulation of primary human mast cells,[4],do not mediate primary human mast cell degranulation; also recorded: do not induce mast cell degranulation
